From PMC7948508, “Comparison of human poly-N-acetyl-lactosamine synthase structure with GT-A fold glycosyltransferases supports a modular assembly of catalytic subsites” (The Journal of Biological Chemistry, 2020)

Biological target: the molecule itself
Assay: SEC-MALS; 20 μl at 1 mg/ml on Superdex 75; 25 mM HEPES (pH 7.4), 150 mM NaCl, 0.02% NaN3

B1: catalytic domain of human β-1,3-N-acetylglucosaminyltransferase 2 (B3GNT2, residues 34–397) (domain or fragment, UniProt Q9NY97 34-397, looked up)
chain: EKNGKGEVIIPKEKFWKISTPPEAYWNREQEKLNRQYNPILSMLTNQTGEAGRLSNISHLNYCEPDLRVTSVVTGFNNLPDRFKDFLLYLRCRNYSLLIDQPDKCAKKPFLLLAIKSLTPHFARRQAIRESWGQESNAGNQTVVRVFLLGQTPPEDNHPDLSDMLKFESEKHQDILMWNYRDTFFNLSLKEVLFLRWVSTSCPDTEFVFKGDDDVFVNTHHILNYLNSLSKTKAKDLFIGDVIHNAGPHRDKKLKYYIPEVVYSGLYPPYAGGGGFLYSGHLALRLYHITDQVHLYPIDDVYTGMCLQKLGLVPEKHKGFRTFDIEEKNKNNICSYVDLMLVHSRKPQEMIDIWSQLQSAHLKC
modifications: N-glycans cut by EndoF1, leaving only a single GlcNAc residue attached to each Asn side chain (sequons N79, N89, N127, N173, N219); at Asn219 a Manβ1,4-GlcNAcβ1,4-GlcNAcβ- glycan is seen in the crystal structure
notes: also called B3GNT2 cat domain; B3GNT2 catalytic domain; source: HEK293S (GnTI-) cells, transient transfection, secreted; purified (Ni2+-NTA, TEV protease + EndoF1 cleavage, second Ni2+-NTA, Superdex 75); not shown: 8xHis, N-terminal, cleaved; AviTag, N-terminal, cleaved; superfolder GFP, N-terminal, cleaved
stoichiometry N: 2
